Reference: paper PMC4198130

Tests used:
[1] = target: GST fusion of the VGLUT1 C-terminus, ΔSH3/1,2,3 (rat); test: pull-down; GST fusions of the VGLUT1 C-terminus on glutathione sepharose beads, incubated with detergent-solubilized (2% TX-100) rat brain extract, RT 60 min; bound proteins by immunoblot, band intensity normalised to VG1 (Figs. 3C,D and 4B)
[2] = target: GST fusion of the VGLUT1 C-terminus lacking the second PP domain (rat); test: as above
[3] = target: GST fusion of the VGLUT1 C-terminus, ΔWW/PAXY (rat); test: as above
[4] = target: GST fusion of the VGLUT1 C-terminus, ΔWW/PAXA (rat); test: as above
[5] = target: GST fusion of the VGLUT1 C-terminus lacking the first PP domain (rat); test: as above
[6] = target: GST fusion of the VGLUT1 C-terminus lacking both PP domains (rat); test: as above
[7] = target: GST fusion of the SH3 domain of sorting nexin 9 (Panomics) (human) (UniProt Q9Y5X1); test: pull-down; GST fusions of SH3 or WW domains on glutathione sepharose beads, incubated with detergent-solubilized (2% TX-100) rat brain extract, RT 60 min; bound VGLUT1 by immunoblot, band intensity normalised to lysate
Sequence of GST fusion of the SH3 domain of sorting nexin 9 (Panomics) (human) (Q9Y5X1 1-62): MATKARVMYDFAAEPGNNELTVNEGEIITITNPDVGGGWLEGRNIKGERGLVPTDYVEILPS

[8] = target: GST fusion of the VGLUT1 C-terminus, SS/AA (rat) (UniProt Q62634); test: pull-down; 400 µg GST fusions of the VGLUT1 C-terminus on glutathione sepharose beads, rat brain extract in 100 mM Tris-HCl pH 7.5, 150 mM NaCl, 1 mM EGTA, 1% TX-100, 4°C 2 h; immunoblot (Fig. 6)
[9] = target: GST fusion of the VGLUT1 C-terminus, SS/DD (rat) (UniProt Q62634); test: as above
[10] = target: GST fusion of the VGLUT1 C-terminus lacking the second PP domain (rat); test: pull-down; GST fusions of the VGLUT1 C-terminus on glutathione sepharose beads, incubated with extracts of COS7 cells transfected with myc-Lyn (2% TX-100); detected with antibody to myc, band intensity normalised to VG1
[11] = target: GST fusion of the VGLUT1 C-terminus lacking the first PP domain (rat); test: as above
[12] = target: GST fusion of the VGLUT1 C-terminus lacking both PP domains (rat); test: as above

Sequence of Nedd4 from rat brain extract (Q62940 whole entry): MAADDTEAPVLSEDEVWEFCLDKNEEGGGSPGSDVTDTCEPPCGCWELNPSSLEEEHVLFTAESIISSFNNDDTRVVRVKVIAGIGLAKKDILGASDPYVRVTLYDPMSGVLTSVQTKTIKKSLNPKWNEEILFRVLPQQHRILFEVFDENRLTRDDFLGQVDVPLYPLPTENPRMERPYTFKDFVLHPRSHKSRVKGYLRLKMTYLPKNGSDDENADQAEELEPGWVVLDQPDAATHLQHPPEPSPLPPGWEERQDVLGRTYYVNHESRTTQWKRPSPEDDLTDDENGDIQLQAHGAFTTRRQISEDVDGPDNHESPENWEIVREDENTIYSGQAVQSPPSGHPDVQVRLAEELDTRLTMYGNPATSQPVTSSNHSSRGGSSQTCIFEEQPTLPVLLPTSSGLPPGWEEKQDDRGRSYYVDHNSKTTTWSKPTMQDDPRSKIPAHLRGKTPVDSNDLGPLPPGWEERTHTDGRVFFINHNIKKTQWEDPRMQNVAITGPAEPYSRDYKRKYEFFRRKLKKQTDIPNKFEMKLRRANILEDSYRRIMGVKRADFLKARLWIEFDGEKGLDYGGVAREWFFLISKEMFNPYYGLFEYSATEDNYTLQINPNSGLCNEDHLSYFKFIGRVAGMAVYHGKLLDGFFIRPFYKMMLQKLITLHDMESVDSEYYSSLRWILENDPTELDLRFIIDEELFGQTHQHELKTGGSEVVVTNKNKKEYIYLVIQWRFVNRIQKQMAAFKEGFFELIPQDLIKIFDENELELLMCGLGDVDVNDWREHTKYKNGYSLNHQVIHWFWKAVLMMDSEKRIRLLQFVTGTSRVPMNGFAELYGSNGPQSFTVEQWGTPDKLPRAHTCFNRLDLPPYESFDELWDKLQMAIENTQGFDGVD
Sequence of myc-tagged Lyn (P25911 whole entry): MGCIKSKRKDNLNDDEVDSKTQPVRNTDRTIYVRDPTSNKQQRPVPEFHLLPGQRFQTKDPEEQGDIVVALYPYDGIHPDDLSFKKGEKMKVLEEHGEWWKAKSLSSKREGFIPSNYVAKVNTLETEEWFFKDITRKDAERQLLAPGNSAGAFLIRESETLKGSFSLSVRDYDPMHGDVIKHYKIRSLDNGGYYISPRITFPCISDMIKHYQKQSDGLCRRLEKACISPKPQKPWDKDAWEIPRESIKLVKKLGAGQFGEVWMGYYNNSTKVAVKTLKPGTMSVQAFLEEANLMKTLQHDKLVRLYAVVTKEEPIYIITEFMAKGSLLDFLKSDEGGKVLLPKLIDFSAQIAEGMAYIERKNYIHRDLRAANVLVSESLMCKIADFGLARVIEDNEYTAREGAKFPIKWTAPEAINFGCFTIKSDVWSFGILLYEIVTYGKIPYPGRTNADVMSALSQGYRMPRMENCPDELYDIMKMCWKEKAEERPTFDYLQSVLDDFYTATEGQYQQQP
Sequence of clathrin adaptor protein AP-2 from rat brain extract (P18484 whole entry, looked up): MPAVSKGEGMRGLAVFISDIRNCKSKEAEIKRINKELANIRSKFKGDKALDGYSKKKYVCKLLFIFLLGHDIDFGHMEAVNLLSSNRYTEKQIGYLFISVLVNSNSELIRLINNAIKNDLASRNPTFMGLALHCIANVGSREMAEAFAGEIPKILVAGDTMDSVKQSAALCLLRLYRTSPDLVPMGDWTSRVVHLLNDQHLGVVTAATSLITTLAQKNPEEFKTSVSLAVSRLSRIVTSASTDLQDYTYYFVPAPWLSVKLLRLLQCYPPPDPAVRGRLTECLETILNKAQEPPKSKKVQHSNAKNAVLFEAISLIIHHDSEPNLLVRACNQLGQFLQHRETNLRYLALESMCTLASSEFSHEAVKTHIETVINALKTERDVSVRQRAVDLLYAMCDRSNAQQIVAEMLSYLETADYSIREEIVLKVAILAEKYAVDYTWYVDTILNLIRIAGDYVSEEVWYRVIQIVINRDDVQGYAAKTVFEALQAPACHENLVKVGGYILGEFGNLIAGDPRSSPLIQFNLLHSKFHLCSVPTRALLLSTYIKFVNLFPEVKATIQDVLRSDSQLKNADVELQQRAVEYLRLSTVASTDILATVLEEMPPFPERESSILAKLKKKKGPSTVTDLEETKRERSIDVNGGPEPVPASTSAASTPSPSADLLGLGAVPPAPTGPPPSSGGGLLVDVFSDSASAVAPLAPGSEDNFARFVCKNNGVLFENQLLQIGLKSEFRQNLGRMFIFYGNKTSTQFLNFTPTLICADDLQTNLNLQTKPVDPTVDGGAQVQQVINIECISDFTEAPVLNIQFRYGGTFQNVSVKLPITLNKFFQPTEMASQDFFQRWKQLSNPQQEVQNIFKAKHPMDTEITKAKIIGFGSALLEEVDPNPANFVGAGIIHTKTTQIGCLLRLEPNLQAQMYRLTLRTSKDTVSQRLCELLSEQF

Substance: Atrophin Interacting Protein AIP4/Itch from rat brain extract (enzyme)
- band intensity normalised to VG1 [1]: 0.99 a.u.
- band intensity normalised to VG1 [2]: 0.822 a.u.
- band intensity normalised to VG1 [3]: 0.119 a.u.
- band intensity normalised to VG1 [4]: 0.0669 a.u.

Substance: Nck from rat brain extract (natural protein)
- band intensity normalised to VG1 [5]: 1.11 a.u.

Substance: Nedd4 from rat brain extract (from UniProt Q62940 1-887) (enzyme)
- band intensity normalised to VG1 [2]: 0.664 a.u.
- band intensity normalised to VG1 [5]: 0.0459 a.u.
- band intensity normalised to VG1 [6]: 0.0821 a.u.

Substance: VGLUT1 from rat brain extract (from UniProt Q62634 1-560) (natural protein)
- band intensity normalised to lysate [7]: 0.111 a.u.

Substance: clathrin adaptor protein AP-2 from rat brain extract (from UniProt P18484 1-938) (complex)
- band intensity (a.u.) [8]: 0.674 a.u.
- band intensity (a.u.) [9]: 1.76 a.u.

Substance: myc-tagged Lyn (from UniProt P25911 1-512) (enzyme)
- band intensity normalised to VG1 [10]: 0.0282 a.u.
- band intensity normalised to VG1 [11]: 1.12 a.u.
- band intensity normalised to VG1 [12]: 0.0368 a.u.

Substance: ponsin/c-Cbl interacting protein CAP from rat brain extract (from UniProt P84109 1-35) (natural protein)
- band intensity normalised to VG1 [2]: 0.062 a.u.
- band intensity normalised to VG1 [5]: 2.24 a.u.
- band intensity normalised to VG1 [6]: 0.225 a.u.
